Reference: patent publication US20170145112A1 (Genentech, published 2017)

Tests used:
[1] = target: T1, Human complement Factor D, mature (human, UniProt P00746 27-253); assay: SPR (Biacore T200): Fab captured with anti-huFab kit, human Factor D injected, 25 C, 1:1 model;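 further: sensorgrams were corrected by subtracting a blank injection of running buffer before fitting kinetic and affinity constants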
T1 construct: In the TR-FRET assay the factor D was bought from Complement Technology; In the hemolysis assay it was the factor D of C1q-depleted human serum; also called human Factor D; hFD
Target sequence in this assay (P00746 27-253): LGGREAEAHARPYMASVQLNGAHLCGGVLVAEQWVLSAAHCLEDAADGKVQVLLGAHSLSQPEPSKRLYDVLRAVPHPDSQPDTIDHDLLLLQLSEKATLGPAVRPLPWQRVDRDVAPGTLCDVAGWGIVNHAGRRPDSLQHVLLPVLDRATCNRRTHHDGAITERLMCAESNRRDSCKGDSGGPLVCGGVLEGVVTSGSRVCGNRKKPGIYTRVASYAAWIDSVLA
Protocol: (§1) Kinetics and binding constant KD for Factor D binding to immobilized hu20D12 versions was determined by surface plasmon resonance (SPR) measurements on a Biacore®T200 instrument. […] After subtraction of the sensorgram observed for injection of running buffer, data were analyzed according to a 1:1 model using BiaEval software v4.1 (GE Healthcare) to extract the kinetics and affinity constants.

[2] = target: T2, Cynomolgus monkey complement Factor D (cynomolgus monkey, UniProt P00746 26-253 (human entry)); assay: SPR, cynomolgus monkey factor D
T2 construct: also called cyfD; cFD
T2 chain: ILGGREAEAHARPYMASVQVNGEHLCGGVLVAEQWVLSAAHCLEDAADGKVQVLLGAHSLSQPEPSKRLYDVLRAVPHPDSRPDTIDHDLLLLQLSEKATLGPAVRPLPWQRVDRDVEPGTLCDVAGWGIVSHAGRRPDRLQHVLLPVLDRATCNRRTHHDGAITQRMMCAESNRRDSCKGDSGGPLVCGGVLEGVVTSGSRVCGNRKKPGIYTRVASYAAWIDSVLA

[3] = target: T1, Human complement Factor D, mature; assay: SPR, Fab captured by anti-huFab, human Factor D injected
[4] = target: T1, Human complement Factor D, mature; assay: SPR, at the limit of detection
Target sequence in this assay (P00746 27-253): as the sequence (P00746 27-253) above
Protocol: as §1

[5] = target: T1, Human complement Factor D, mature; assay: cell-based or functional assay
[6] = target: T1, Human complement Factor D, mature; assay: cell-based or functional assay; remark: listed apart in the source
Target sequence in this assay (P00746 27-253): as the sequence (P00746 27-253) above

B1: hu20D12.v2.1 Fab (Fab, V domains shown)
VH: EVQLVQSGAEVKKPGASVKVSCKASGYTFTSYYMYWVRQAPGQGLEWIGEINPTSGGTNFNEKFKSRATLTVDTSTSTAYLELSSLRSEDTAVYYCAREGGFAYWGQGTLVTVSS
VL: DIQMTQSPSSLSASVGDRVTITCKASQNVDTDVAWFQQKPGKAPKGLIRSASSRYSGVPSRFSGSGSGTDFTLTISSLQPEDFATYYCQQYNNYPLTFGQGTKVEIKR
Kd [1]: < 0.01 nM | koff [1]: 8.1e-05 s⁻¹ | kon [1]: 1.2e+07 M⁻¹ s⁻¹ | Kd [2]: 0.017 nM | fold improvement of affinity relative to hu20D12.v2.0 [2]: ~10 fold | fold improvement of affinity relative to lampalizumab [2]: 2 fold | fold improvement in binding relative to hu20D12.v2.0 [3]: ≥ 4 fold | Kd [4]: ~0.01 nM | FRET IC50 (TR-FRET assay of Factor D-dependent factor B activation), value 1 of 2 in the cell [5]: 0.033 nM | FRET IC50 (TR-FRET assay of Factor D-dependent factor B activation), value 2 of 2 in the cell [5]: 0.032 nM | IC50, TR-FRET assay of Factor D (50 pM) cleavage of factor B [6]: 32 pM
